In this test the target is p97 C-terminal peptide (last 10 residues, …), N-terminally labeled with fluorescein. Kind of test: fluorescence polarisation.

“PLAA C-terminal PUL domain (residues 454-738) (domain or fragment)” yielded a Kd of 5 µM.

Source of the values: PMC2804184.
